These results are taken from patent US20190161555A1 (ALLIGATOR BIOSCIENCE, published 2019).

For experiment [1], the target named is T1, human 5T4 on transfected cells (human, UniProt Q13641 32-420).
T1 construct: whole, on cells; for B16 and A9 cells only a 5T4 construct is named; also called 5T4-transfected B16 cells; B16-5T4
T1 sequence (looked up): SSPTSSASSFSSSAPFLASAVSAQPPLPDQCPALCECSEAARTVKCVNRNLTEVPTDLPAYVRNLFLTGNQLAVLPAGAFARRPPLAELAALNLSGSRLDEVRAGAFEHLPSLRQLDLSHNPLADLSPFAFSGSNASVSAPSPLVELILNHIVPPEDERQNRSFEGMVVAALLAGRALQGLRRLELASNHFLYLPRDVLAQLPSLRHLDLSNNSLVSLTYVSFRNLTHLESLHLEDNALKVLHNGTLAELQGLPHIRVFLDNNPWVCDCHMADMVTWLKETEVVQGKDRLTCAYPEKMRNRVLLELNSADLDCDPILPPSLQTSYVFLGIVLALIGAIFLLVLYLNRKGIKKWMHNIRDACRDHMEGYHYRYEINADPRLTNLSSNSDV
The experiment is described as follows: flow cytometry, CHO cells stably transfected with human 5T4. Here is the method: Analysis of 5T4 mAb binding with flow cytometry was performed using 5T4-transfected cell lines and as negative control, mock transfected cells. Three different transfected cell lines used were used for this study; B16, A9 and CHO, transfected either with a 5T4 construct or with an empty vector control construct. Cells were stained with 5T4 antibodies diluted in FACS buffer (PBS, 0.5% BSA and 0.02% NaN₃). […] Samples were analysed either on a FACSCalibur or a FACSverse (BD Biosciences, Heidelberg, Germany) and mean fluorescence intensity (MFI) determined.
In a new attempt to calculate EC50 with flow cytometry a 5T4 mAb dose response experiment was performed using CHO cells stably transfected with human 5T4.
On the technique in general: In flow cytometry, cells or beads pass a laser one at a time.

Experiment [2] has as its target T2, human/mouse 5T4 chimera E7.
T2 construct: on stably transfected CHO cells
The experiment is described as follows: flow cytometry, cells with 5T4 chimera; % positive cells over that of the best clone. Here is the method:
(§1) Epitope mapping was performed by investigation of loss of binding by the antibodies using a panel of human/mouse chimeric 5T4 constructs by flow cytometry. […] Two strategies were used for the epitope mapping as illustrated in FIG. 5. In one approach, seven human/mouse 5T4 chimeras were constructed based on dividing 5T4 into seven different domains (FIG. 5). By replacing each domain with the corresponding mouse sequence seven human/mouse 7 5T4 human/mouse chimeras were generated. The chimeras were generated using the human protein 5T4 sequence NP_006661.1 (reference mRNA sequence NM_006670.4) and the corresponding mouse sequence NP_035757.2 (reference mRNA sequence NM_011627.4). The human/mouse chimeric DNA constructs, as well as human and mouse wild-type 5T4, were cloned into pcDNA3.1 expression vectors. […] In the other approach, cells transfected with a human/mouse 5T4 chimera (Woods et al., 2002) was used, in which mouse sequence in amino acid 173-420 replaced the human sequence (FIG. 5). As controls human 5T4 and mouse 5T4-transfected cells were used.
(§2) For flow cytometric analysis, cells were stained with different 5T4 antibodies diluted in FACS buffer (PBS, 0.5% BSA). […] Samples were analysed by FACSverse (BD Biosciences, Heidelberg, Germany) and % positive cells were determined. To compensate for variations in % 5T4 positive cells in the various transfected populations, binding levels were normalized within each chimera by dividing % positive cells for each clone with % positive cells for the clones resulting in the highest % positive cells (% pos cellsclonX/% positive cellsₘₐₓ). A normalized value≤0.75 was defined as mAb binding being dependent on the replaced region, whereas a normalized value≤0.25 was defined as complete dependence.

Experiment [3] concerns the target T3, human/mouse 5T4 chimera E3.
T3 construct: on stably transfected CHO cells
Described as above. Here is the method: as §1, §2

Experiment [4] deals with T4, human/mouse 5T4 chimera E6.
T4 construct: on stably transfected CHO cells
Described as above. As to the method:
as §1, §2

For experiment [5], the target named is T5, human/mouse 5T4 chimera E5.
T5 construct: on stably transfected CHO cells
Described as above. As to the method: as §1, §2

Experiment [6] concerns the target T6, human/mouse 5T4 chimera E4.
T6 construct: on stably transfected CHO cells
The experiment is described as above. Here is the method:
as §1, §2

Experiment [7] has as its target T7, human/mouse 5T4 chimera E1.
T7 construct: on stably transfected CHO cells
The description is as above. Here is the method:
as §1, §2

Experiment [8] concerns the target T8, human/mouse 5T4 chimera E2.
T8 construct: on stably transfected CHO cells
The description is as above. Here is the method: as §1, §2

Experiment [9] addresses T9, 5T4 (immobilised for SPR) (UniProt Q13641 32-355, limits assumed, biotinylated on the MASS-1 platform).
T9 construct: also called biotinylated 5T4
T9 sequence (looked up): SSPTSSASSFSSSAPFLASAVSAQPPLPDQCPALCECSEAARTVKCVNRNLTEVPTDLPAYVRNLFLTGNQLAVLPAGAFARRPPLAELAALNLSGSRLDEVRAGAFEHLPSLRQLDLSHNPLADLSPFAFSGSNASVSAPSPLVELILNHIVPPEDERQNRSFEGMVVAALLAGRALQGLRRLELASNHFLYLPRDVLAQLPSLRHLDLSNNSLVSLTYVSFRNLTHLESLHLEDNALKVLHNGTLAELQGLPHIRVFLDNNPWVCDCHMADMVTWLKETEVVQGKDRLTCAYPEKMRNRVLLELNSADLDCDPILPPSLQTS
Kind of experiment: SPR Biacore 3000, 5T4 amine-coupled, mAb injected, 1:1 Langmuir. As to the method: Binding kinetics of the 5T4-specific mAbs have been studied using two different SPR-based platforms, the Biacore 3000 (GE Healthcare) and the MASS-1 platform (Sierra Sensors). Briefly, 5T4 was captured at the sensor chip surface either via direct amine coupling (Biacore platform) or using a streptavidin coated chip and biotinylated 5T4 (MASS-1 platform). The different 5T4-specific mAbs were then injected over the chip in increasing concentrations and the association and dissociation rates studied in real time. A 1:1 Langmuir model was used for curve fitting.

B1: 1210/1211 (antibody, IgG1, V domains shown)
VH: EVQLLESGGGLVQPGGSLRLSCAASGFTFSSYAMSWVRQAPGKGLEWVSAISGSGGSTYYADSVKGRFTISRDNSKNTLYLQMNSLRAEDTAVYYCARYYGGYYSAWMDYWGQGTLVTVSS
VL: DIQMTQSPSSLSASVGDRVTITCRASQSISSYLNWYQQKPGKAPKLLIYAASSLQSGVPSRFSGSGSGTDFTLTISSLQPEDFATYYCQQTYGYLHTFGQGTKLEIK
notes: 5T4 antibody
In [1], B1 registered an EC50 of 0.81 nM. For the same molecule, in experiment [1], the “EC50 normalized to reference 1628” value was 1.6 ratio to 1628. For the same molecule, the “normalized % positive cells” value in [2] came out at 0.96; in experiment [3], 0.9; in [4], 0.89; in experiment [5], 0.89; in experiment [6], 0.69; in experiment [7] it was 0.99. The “normalized % positive cells” value in experiment [8] came to 0.02. In addition, binding in experiment [9] was put at a Kd of 0.2 nM. The molecule also showed a koff in [9] of 0.0001 s⁻¹. Also, in [9], the kon turned out to be 500000 M⁻¹ s⁻¹.

B2: 1206/1207 (antibody, V domains shown)
VH: EVQLLESGGGLVQPGGSLRLSCAASGFTFSGSSMSWVRQAPGKGLEWVSSIYYSGSGTYYADSVKGRFTISRDNSKNTLYLQMNSLRAEDTAVYYCARYGRNVHPYNLDYWGQGTLVTVSS
VL: DIQMTQSPSSLSASVGDRVTITCRASQSISSYLNWYQQKPGKAPKLLIYAASSLQSGVPSRFSGSGSGTDFTLTISSLQPEDFATYYCQQGYYYLPTFGQGTKLEIK
notes: 5T4 antibody
The molecule B2 returned an EC50 in experiment [1] of 0.51 nM. Moreover, the “EC50 normalized to reference 1628” value in experiment [1] was 1 ratio to 1628. The “normalized % positive cells” value worked out at 0.94 in [2]; 0.25 in experiment [3]; 0.94 in experiment [4]; 0.9 in [5]; 0.52 in [6]; 0.96 in experiment [7]. In addition, the “normalized % positive cells” value in experiment [8] came out at 0.74. Further, the affinity in experiment [9], expressed as Kd, was 2.3 nM. In addition, the koff in [9] worked out at 0.00028 s⁻¹. In addition, the kon in [9] is 130000 M⁻¹ s⁻¹.

One may read the EC50 as the concentration giving half of the maximal effect. One may read the Kd as the equilibrium constant for the complex coming apart. The low end stands for tighter binding, the high end for weaker binding. Broadly, the koff is a measure of how fast the partners let go of each other. A high value points to a short-lived complex. In general, kon refers to the second-order rate constant of association.
